Laboratory results published in patent EP4644419A1 (Hangzhou Zhongmeihuadong Pharmaceutical Co., Ltd., dated 2025).

T1: human CD112R antigen protein huCD112R-His (Acro Biosysterm, PVG-H52H4) (human, UniProt Q6DKI7 41-171)
T1 construct: purchased; also called human antigen protein; not shown: His tag
T1 sequence (looked up): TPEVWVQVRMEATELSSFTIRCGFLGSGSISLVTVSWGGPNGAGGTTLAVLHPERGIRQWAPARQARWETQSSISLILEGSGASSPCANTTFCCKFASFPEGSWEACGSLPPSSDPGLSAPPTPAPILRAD

T2: monkey antigen protein (monkey CD112R, Uniprot ID: A0A2K5WVV8) (monkey, UniProt A0A2K5WVV8 41-171)
T2 sequence: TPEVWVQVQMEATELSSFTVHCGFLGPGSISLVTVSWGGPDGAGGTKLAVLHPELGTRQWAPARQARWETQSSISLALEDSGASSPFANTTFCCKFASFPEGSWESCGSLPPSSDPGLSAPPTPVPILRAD


Columns and labels:
[1] = biological target: T1, human CD112R antigen protein …; assay: ELISA, huCD112R-His coated on plate
[2] = biological target: T2, monkey antigen protein (monkey CD112R, …); assay: ELISA, monkey antigen protein (as Example 6.1)
[3] = biological target: T1, human CD112R antigen protein …; assay: SPR (Biacore X100), antibody captured on Protein A chip, huCD112R-His as analyte, 1:1 Langmuir

Binder	EC50 [1] [nM]	EC50 [2] [nM]	Kd [3] [nM]
C23 (antibody, human IgG1, kappa, V domains shown) VH: QVQLQQSGPELVKPGTSVKISCKASGYTFTDYYINWVKQRPGQGLEWIGWIFPGSGNTYYNEKFKGRATLTVDKSSSTAYMLLSSLTSEDSAVYFCARDGGLRGPFDYWGQGTTLTVSS VL: DIQMTQSPSSLSASLGGKVTITCKASQDINKYIAWFQHKPGKGPRLLIHFTSTLQSGIPSRFSGSGSGGDYSFSISNLEPEDIATYYCLQYDYLYTFGGGTTLEIKR	0.06	0.125	–
C114 (antibody, human IgG1, kappa, V domains shown) VH: QVQLQQSGAELVRPGTSVKMSCKAAGYTFTNSWINWVKQRPGHGLEWIGDIYPGNTFPNYNEKFKGKATLTADTSSSTAYMQLSSLTSEDSAVYYCTGGYFDVWGTGTTVTVSS VL: DIVMTQSPSSLSVSAGEKVTMSCKSSQSLLNSGNQKNFLAWYQQKPGQPPKLLIFGASTRQSGVPDRFTGSGSGTDFTLTISSVQAEDLAVYYCQNDHSYPYTFGGGTKLEMKR	0.042	0.077	0.0356
C39 (antibody, human IgG1, kappa, V domains shown) VH: QAYLQQSGAELVRPGASVKMSCKASGYTFTSYNIHWVKQTPRQGLEWIGAIYPGNADISYNQKFRDKATLTVDKSSSTAYMQLSSLTSEDSAVYFCAKPLRIYAMDCWGQGTSVTVSS VL: DIVMTQSQKFMSTSVGDRVSVTCKASQNVGTNVAWYQQKPGQSPKALIYSASYRYSGVPDRFTGSGSGTDFTLTISNVQSEDLADYFCQQYNSRPLTFGGGTKLEIKR	0.691	0.141	–
C22 (antibody, human IgG1, kappa, V domains shown) VH: EVQLQQSGPEPVKPGASVKISCKASGYTFTDYNIHWVRQSHGKSLEWIGYIYPYNGGAGYNQKFKSKATLTVDSSSSTAYMELRSLTSEDSAVYYCAREELRRDYGMDYWGQGTSVTVSS VL: DIQMTQSPASLSASVGETVTITCRASENIYSYLAWYQQKQGKSPQLLVYNAKTLAEGVPSRFSGSGSGTQFSLKINSLQPEDFGSYYCQHHYGTPYTFGGGTKLETKR	0.029	0.125	–
C115 (antibody, human IgG1, kappa, V domains shown) VH: EVQLQQSGAELVKPGASVKLSCTASGFNIEDTYIHWVKRRPEQGLEWIGGIDPAIGNTLYASKFQDMATITADTSSSTAYMQLSSLTSGDTAVYYCARERVYSNTLYYAMDYWGQGTSVTVSS VL: DIVLTQSPASLVVSLGQRATISCRASKSVSISGYSYMHWYQQKPGQPPKLLIYLASNLESGVPARFSGSGSGTDFTLNIHPVEAEDAATYYCQHSRELPPTFGGGTNLEIKR	0.029	0.034	0.222
C101 (antibody, human IgG1, kappa, V domains shown) VH: EVQLQQSGPELVKPGSSVKISCEASGFTFADYNVDWVKQSHGKSLEWIGAINPNDGGTSYNQKFEGKATLTVDKSSTTAYMELRSLTSEDSAVYYCARWVNNDWYFDVWGTGTTVTVSS VL: DIVMTQSQKFMSTSVGDRVSITCKASQNVRSAVDWYQQKPGQSPKTLIHSASNRHTGVPDRFTGSGSGTDFTLTISNIQSEDLADYFCLQHWNYPYTFGGGTKLEVKR	0.043	0.085	0.0392
C113 (antibody, human IgG1, kappa, V domains shown) VH: EVQLQQSGPELVKPGSSVKISCKASGYTFTDYNLDWMKQSHGSSLEWIGAMSPNNGATSYNQKFKGKATLTVDKSSSTAYMELRSLTSEDSAVYYCARWDSNSWYFDVWGTGTTVTVSS VL: DIVMTQSQKFMSTSVGDRVSITCKASQIVRTAVDWYQQKSGQSPKALIYSASTRHTGVPDRFTGSGSGTDFTLTIDNVQSEDLAEYFCLQHWNYPYTFGGGTKLEIKR	0.038	0.104	–
C111 (antibody, human IgG1, kappa, V domains shown) VH: QVQLQQSGPELARPGASVKLSCKASGYTLTSHGISWVKQRTGQGLEWIGEIYPGSESPYYSEKFKGKATLTADKSSNIAYMQLSSLTSEDSAVYFCARSDYSDYWAMDYWGQGTSVTVSS VL: DIVMTQSQKCMSTSVGDRVSITCKASQNVRSAVAWYQQKPGQSPKTLIYLASNRHTGVPDRFTGSGSGTDFTLTITNVQSEDLADYFCLQHWNYPWTFGGGTELEIKR	0.036	0.074	–
C105 (antibody, human IgG1, kappa, V domains shown) VH: EVQLQQSGPELVKPGSSMKISCKASGYTFTDYSMDWVKQSHGKSLEWIGAINPNNGGTSYNQKFKDKATLTVDRSSSTAYMELRSLTSEDSAVYYCARWDSDYWYFDVWATGTTVTVSS VL: DIVMTQSQKFMSTSVGDRVSITCKASQNVRTAVDWYQQKPGQSPKALIYSASNRHTGVPDRFTGSGSGTDFTLTISNVQSEDLADYFCLQHWNYPYTFGGGTKLEIKR	0.021	0.065	0.716
C146 (antibody, human IgG1, kappa, V domains shown) VH: EVQLQQSGPELVKPGSSVKISCEASGYTFADYNVDWVKQSHGKSLEWIGAINPNDGGTSYNQKFEGKATLTVDKSSTTVYMELRSLTSEDSAVYYCARWVNNDWYFDVWGTGTTVTVSS VL: DIVMTQSQKFMSTSVGDRVSITCKASQNVRSAVDWYQQKPGQSPKTLIHSASSRHTGVPDRFTGSGSGTDFTLTISNIQSEDLADYFCLQHWNYPYTFGGGTKLEVKR	0.036	0.074	–
C120 (antibody, human IgG1, kappa, V domains shown) VH: EVQLQQSGPEVVKPGASVKISCKASGNTLTDYFINWVKQSHGKNLEWIGDINPDNGAGNYNQKFKGKATLTVDKSSGTAFMGLRSLTSEDSAVYYCATLYFDYWGQGTTLTVSS VL: DIVMTQSPSSLSVSTGEKVTMSCRSSQSLLNSGNQKNYLAWYQQKPGQPPKLLIYGASTRESGVPDRFTGSGSGTDFTLTISSVQAEDLAIYYCQNAHTSPYTFGGGTRLEIKR	0.035	0.062	0.0769
C145 (antibody, human IgG1, kappa, V domains shown) VH: EVQLQQSGPEVVKPGASVRISCKASGNTFTDFFINWVKQSHGKSLEWIGDVNPDSNGANYNQKFKGKATLTVDKSSGTAFMGLRSLTSEDSAVYYCATLFFDNWGQGTTLTVSS VL: DIVMTQSPSSLNVSAGEKVTMSCKSSQSLLNSGNQKNYLAWYQQKPGQPPKLLIYGASTRESGVPDRFTGSGSGTDFILTISSVQAEDLALYYCQNAHSSPYTFGGGTKLEIKR	0.038	0.042	–
C28 (antibody, human IgG1, kappa, V domains shown) VH: QIQLQQSGPELVKPGPSVKISCKASGYTFTDYYINWVKQRPGQGLEWIGWIYPGSGYTKYNEKLKGRATLTVDTSSSTAYMQLSSLTSEDSAVYFCARDSFYAMDYWGQGTSVTVSS VL: DIVMTQSQKFMSTTVGDRVSITCKASQNVGTAVAWYQQKPGQSPKLLIYSASNRYTGVPDRFTGSGSGTDFTLTITNMQSEDLADYFCLQYSSYLTFGAGTKLELKR	0.049	0.054	–
C31 (antibody, human IgG1, kappa, V domains shown) VH: QIQLQQSGPELVKPGASVKISCKASGYTFTDYYIAWVKQRPGQGLEWIGWIYLGSGHTMYNENFKGKATLTVDTSSSTAYMQLSSLTSEDSAVYFCARDSFYAMDYWGQGTSVTVSS VL: DIVMTQSQKFMSTTVGDRVSITCKASQNVGTAVAWYQQKPGQSPKLLIYSASNRYTGVPDRFTGSGSGTDFTLTISNMQSEDLADYFCQQYSTYLTFGAGTKLELKR	0.038	0.12	–
C136 (antibody, human IgG1, kappa, V domains shown) VH: DVQLVESGGGLVKPGGSLKLSCAASGFSFSENYMYWVRQTPEKRLEWVATISDGASYTYYPDNVKGRFTISRDTAKNNLYLQMSHLKSEDTAMYYCTRDELIAPFAYWGQGTLVTVSA VL: DIVMTQSHKFMSTSVGDRVSITCKASQDVGTAVAWFQQKPGQSPKLLIYWASTRHTGVPDRFTGSGSGTDFTLTISNVQSEDLADYFCQQYNSYPWTFGGGTKLEIKR	0.039	0.06	–
C36 (antibody, human IgG1, kappa, V domains shown) VH: QIQLVQSGPELKKPGETVKISCKASGYTFTTYGMSWVKQAPGKGLKWMGWINTYSGVPTYADDFKGRFAFSLETSASNAYLQINNLKNEDTATYFCARELPFTTIIGTKDYWGQGTTLTVSS VL: DIVLIQSPATLSVTPGDSVSLSCRASQFISNNLHWYQQKSHESPRLLIKYASQSISGIPSRFSGGGSGTDFTLTVNSVETEDFGMYFCQQSNSWPHTFGGGTKLEIKR	0.219	0.101	–
C56-2 (antibody, human IgG1, kappa, V domains shown) VH: EVQLVESGGGLVKPGGSLKLSCAASGFTFSDYALSWVRQTPEKRLEWVATIRDGGSYTYYSDNEKGRFTISRDNAKNNLYLQMSHLRSEDTAMYYCTRDQVNRGWFTYWGQGTLVTVSA VL: QVILTQSPAIMSASLGERVTMTCSASSSVSSSYFHWFQQKPGSSPKLWIYSTSNLASGVPPRFSGSGSGTSYSLTISSMEAEDAATYYCHQHHRSPLTFGAGTKLELKR	0.032	0.044	–
C59 (antibody, human IgG1, kappa, V domains shown) VH: EVQLVESGGGLVKPGGSLKLSCAASGFTFSGYALSWVRQTPEKRLEWVATIRDGGSYTYYSDNEKGRFTISRDNAKNNLYLQMSHLKSEDTAMYYCTRDQVNRGWFTYWGQGTLVTVSA VL: QVILTQSPAIMSASLGERVTMTCSASSSVSSSYFHWFQQKPGSSPKLWIYSTSNLASGVPPRFSGSGSGTSYSLTISSMEAEDAATYYCHQHHRSPLTFGAGTKLELKR	0.044	0.049	–
